Measured values taken from US12679878B2, “CRF2 receptor agonists and their use in therapy” (SANOFI, priority 2020, dated 2026).
Starred links: 1 amine or outer side, 2 acyl side, 3 side chain; linkers in the order of their positions; H or OH if unused. Non-standard residues stand in square brackets, D forms with d. Groups on a side chain read outwards from the residue. No end group written: not given here. *: point of attachment. C18 diacid = O=C(O)CCCCCCCCCCCCCCCCC(=O)*; γGlu = O=C(O)[C@H](CCC(=O)[*:2])N[*:1]; Palmitoyl = CCCCCCCCCCCCCCCC(=O)*; AEEA = NCCOCCOCC(=O)O; Aib = CC(C)(N)C(=O)O

B1: SEQ ID NO: 162 (peptide)
peptide: Ac-IVLSLD[dV]PIELK([AEEA-AEEA-γGlu-C18 diacid])QILLEQERQK[Aib]QREQAEKNKQILEQV-NH2
SMILES: CC[C@H](C)[C@H](NC(C)=O)C(=O)N[C@H](C(=O)N[C@@H](CC(C)C)C(=O)N[C@@H](CO)C(=O)N[C@@H](CC(C)C)C(=O)N[C@@H](CC(=O)O)C(=O)N[C@@H](C(=O)N1CCC[C@H]1C(=O)N[C@H](C(=O)N[C@@H](CCC(=O)O)C(=O)N[C@@H](CC(C)C)C(=O)N[C@@H](CCCCNC(=O)COCCOCCNC(=O)COCCOCCNC(=O)CC[C@H](NC(=O)CCCCCCCCCCCCCCCCC(=O)O)C(=O)O)C(=O)N[C@@H](CCC(N)=O)C(=O)N[C@H](C(=O)N[C@@H](CC(C)C)C(=O)N[C@@H](CC(C)C)C(=O)N[C@@H](CCC(=O)O)C(=O)N[C@@H](CCC(N)=O)C(=O)N[C@@H](CCC(=O)O)C(=O)N[C@@H](CCCNC(=N)N)C(=O)N[C@@H](CCC(N)=O)C(=O)N[C@@H](CCCCN)C(=O)NC(C)(C)C(=O)N[C@@H](CCC(N)=O)C(=O)N[C@@H](CCCNC(=N)N)C(=O)N[C@@H](CCC(=O)O)C(=O)N[C@@H](CCC(N)=O)C(=O)N[C@@H](C)C(=O)N[C@@H](CCC(=O)O)C(=O)N[C@@H](CCCCN)C(=O)N[C@@H](CC(N)=O)C(=O)N[C@@H](CCCCN)C(=O)N[C@@H](CCC(N)=O)C(=O)N[C@H](C(=O)N[C@@H](CC(C)C)C(=O)N[C@@H](CCC(=O)O)C(=O)N[C@@H](CCC(N)=O)C(=O)N[C@H](C(N)=O)C(C)C)[C@@H](C)CC)[C@@H](C)CC)[C@@H](C)CC)C(C)C)C(C)C
B2: SEQ ID NO: 164 (peptide)
peptide: Ac-IVLSLD[dV]PIGLK([AEEA-AEEA-γGlu-C18 diacid])QILLEQERQK[Aib]QREQAEKNKQILEQV-NH2
SMILES: CC[C@H](C)[C@H](NC(C)=O)C(=O)N[C@H](C(=O)N[C@@H](CC(C)C)C(=O)N[C@@H](CO)C(=O)N[C@@H](CC(C)C)C(=O)N[C@@H](CC(=O)O)C(=O)N[C@@H](C(=O)N1CCC[C@H]1C(=O)N[C@H](C(=O)NCC(=O)N[C@@H](CC(C)C)C(=O)N[C@@H](CCCCNC(=O)COCCOCCNC(=O)COCCOCCNC(=O)CC[C@H](NC(=O)CCCCCCCCCCCCCCCCC(=O)O)C(=O)O)C(=O)N[C@@H](CCC(N)=O)C(=O)N[C@H](C(=O)N[C@@H](CC(C)C)C(=O)N[C@@H](CC(C)C)C(=O)N[C@@H](CCC(=O)O)C(=O)N[C@@H](CCC(N)=O)C(=O)N[C@@H](CCC(=O)O)C(=O)N[C@@H](CCCNC(=N)N)C(=O)N[C@@H](CCC(N)=O)C(=O)N[C@@H](CCCCN)C(=O)NC(C)(C)C(=O)N[C@@H](CCC(N)=O)C(=O)N[C@@H](CCCNC(=N)N)C(=O)N[C@@H](CCC(=O)O)C(=O)N[C@@H](CCC(N)=O)C(=O)N[C@@H](C)C(=O)N[C@@H](CCC(=O)O)C(=O)N[C@@H](CCCCN)C(=O)N[C@@H](CC(N)=O)C(=O)N[C@@H](CCCCN)C(=O)N[C@@H](CCC(N)=O)C(=O)N[C@H](C(=O)N[C@@H](CC(C)C)C(=O)N[C@@H](CCC(=O)O)C(=O)N[C@@H](CCC(N)=O)C(=O)N[C@H](C(N)=O)C(C)C)[C@@H](C)CC)[C@@H](C)CC)[C@@H](C)CC)C(C)C)C(C)C
B3: SEQ ID NO: 165 (peptide)
peptide: Ac-IVLSLD[dV]PIKLK([AEEA-AEEA-γGlu-C18 diacid])QILLEQARQK[Aib]QREQAEKNEQILEQV-NH2
SMILES: CC[C@H](C)[C@H](NC(C)=O)C(=O)N[C@H](C(=O)N[C@@H](CC(C)C)C(=O)N[C@@H](CO)C(=O)N[C@@H](CC(C)C)C(=O)N[C@@H](CC(=O)O)C(=O)N[C@@H](C(=O)N1CCC[C@H]1C(=O)N[C@H](C(=O)N[C@@H](CCCCN)C(=O)N[C@@H](CC(C)C)C(=O)N[C@@H](CCCCNC(=O)COCCOCCNC(=O)COCCOCCNC(=O)CC[C@H](NC(=O)CCCCCCCCCCCCCCCCC(=O)O)C(=O)O)C(=O)N[C@@H](CCC(N)=O)C(=O)N[C@H](C(=O)N[C@@H](CC(C)C)C(=O)N[C@@H](CC(C)C)C(=O)N[C@@H](CCC(=O)O)C(=O)N[C@@H](CCC(N)=O)C(=O)N[C@@H](C)C(=O)N[C@@H](CCCNC(=N)N)C(=O)N[C@@H](CCC(N)=O)C(=O)N[C@@H](CCCCN)C(=O)NC(C)(C)C(=O)N[C@@H](CCC(N)=O)C(=O)N[C@@H](CCCNC(=N)N)C(=O)N[C@@H](CCC(=O)O)C(=O)N[C@@H](CCC(N)=O)C(=O)N[C@@H](C)C(=O)N[C@@H](CCC(=O)O)C(=O)N[C@@H](CCCCN)C(=O)N[C@@H](CC(N)=O)C(=O)N[C@@H](CCC(=O)O)C(=O)N[C@@H](CCC(N)=O)C(=O)N[C@H](C(=O)N[C@@H](CC(C)C)C(=O)N[C@@H](CCC(=O)O)C(=O)N[C@@H](CCC(N)=O)C(=O)N[C@H](C(N)=O)C(C)C)[C@@H](C)CC)[C@@H](C)CC)[C@@H](C)CC)C(C)C)C(C)C
B4: SEQ ID NO: 19 (peptide)
peptide: IVLSLD[dV]PTKLK([γGlu-Palmitoyl])QKLLKQERQR[Aib]EREQAEKNKRILERV-NH2
modifications: N-terminus assumed
SMILES: CCCCCCCCCCCCCCCC(=O)N[C@@H](CCC(=O)NCCCC[C@H](NC(=O)[C@H](CC(C)C)NC(=O)[C@H](CCCCN)NC(=O)[C@@H](NC(=O)[C@@H]1CCCN1C(=O)[C@H](NC(=O)[C@H](CC(=O)O)NC(=O)[C@H](CC(C)C)NC(=O)[C@H](CO)NC(=O)[C@H](CC(C)C)NC(=O)[C@@H](NC(=O)[C@@H](N)[C@@H](C)CC)C(C)C)C(C)C)[C@@H](C)O)C(=O)N[C@@H](CCC(N)=O)C(=O)N[C@@H](CCCCN)C(=O)N[C@@H](CC(C)C)C(=O)N[C@@H](CC(C)C)C(=O)N[C@@H](CCCCN)C(=O)N[C@@H](CCC(N)=O)C(=O)N[C@@H](CCC(=O)O)C(=O)N[C@@H](CCCNC(=N)N)C(=O)N[C@@H](CCC(N)=O)C(=O)N[C@@H](CCCNC(=N)N)C(=O)NC(C)(C)C(=O)N[C@@H](CCC(=O)O)C(=O)N[C@@H](CCCNC(=N)N)C(=O)N[C@@H](CCC(=O)O)C(=O)N[C@@H](CCC(N)=O)C(=O)N[C@@H](C)C(=O)N[C@@H](CCC(=O)O)C(=O)N[C@@H](CCCCN)C(=O)N[C@@H](CC(N)=O)C(=O)N[C@@H](CCCCN)C(=O)N[C@@H](CCCNC(=N)N)C(=O)N[C@H](C(=O)N[C@@H](CC(C)C)C(=O)N[C@@H](CCC(=O)O)C(=O)N[C@@H](CCCNC(=N)N)C(=O)N[C@H](C(N)=O)C(C)C)[C@@H](C)CC)C(=O)O
B5: SEQ ID NO: 166 (peptide)
peptide: Ac-IVLSLD[dV]PIKLK([AEEA-AEEA-γGlu-C18 diacid])QILLEQERQK[Aib]QREQAEKNEQILEQV-NH2
SMILES: CC[C@H](C)[C@H](NC(C)=O)C(=O)N[C@H](C(=O)N[C@@H](CC(C)C)C(=O)N[C@@H](CO)C(=O)N[C@@H](CC(C)C)C(=O)N[C@@H](CC(=O)O)C(=O)N[C@@H](C(=O)N1CCC[C@H]1C(=O)N[C@H](C(=O)N[C@@H](CCCCN)C(=O)N[C@@H](CC(C)C)C(=O)N[C@@H](CCCCNC(=O)COCCOCCNC(=O)COCCOCCNC(=O)CC[C@H](NC(=O)CCCCCCCCCCCCCCCCC(=O)O)C(=O)O)C(=O)N[C@@H](CCC(N)=O)C(=O)N[C@H](C(=O)N[C@@H](CC(C)C)C(=O)N[C@@H](CC(C)C)C(=O)N[C@@H](CCC(=O)O)C(=O)N[C@@H](CCC(N)=O)C(=O)N[C@@H](CCC(=O)O)C(=O)N[C@@H](CCCNC(=N)N)C(=O)N[C@@H](CCC(N)=O)C(=O)N[C@@H](CCCCN)C(=O)NC(C)(C)C(=O)N[C@@H](CCC(N)=O)C(=O)N[C@@H](CCCNC(=N)N)C(=O)N[C@@H](CCC(=O)O)C(=O)N[C@@H](CCC(N)=O)C(=O)N[C@@H](C)C(=O)N[C@@H](CCC(=O)O)C(=O)N[C@@H](CCCCN)C(=O)N[C@@H](CC(N)=O)C(=O)N[C@@H](CCC(=O)O)C(=O)N[C@@H](CCC(N)=O)C(=O)N[C@H](C(=O)N[C@@H](CC(C)C)C(=O)N[C@@H](CCC(=O)O)C(=O)N[C@@H](CCC(N)=O)C(=O)N[C@H](C(N)=O)C(C)C)[C@@H](C)CC)[C@@H](C)CC)[C@@H](C)CC)C(C)C)C(C)C
B6: SEQ ID NO: 167 (peptide)
peptide: Ac-IVLSLD[dV]PIGLK([AEEA-AEEA-γGlu-C18 diacid])QILLEQERQK[Aib]QREQAEKNEQILEQV-NH2
SMILES: CC[C@H](C)[C@H](NC(C)=O)C(=O)N[C@H](C(=O)N[C@@H](CC(C)C)C(=O)N[C@@H](CO)C(=O)N[C@@H](CC(C)C)C(=O)N[C@@H](CC(=O)O)C(=O)N[C@@H](C(=O)N1CCC[C@H]1C(=O)N[C@H](C(=O)NCC(=O)N[C@@H](CC(C)C)C(=O)N[C@@H](CCCCNC(=O)COCCOCCNC(=O)COCCOCCNC(=O)CC[C@H](NC(=O)CCCCCCCCCCCCCCCCC(=O)O)C(=O)O)C(=O)N[C@@H](CCC(N)=O)C(=O)N[C@H](C(=O)N[C@@H](CC(C)C)C(=O)N[C@@H](CC(C)C)C(=O)N[C@@H](CCC(=O)O)C(=O)N[C@@H](CCC(N)=O)C(=O)N[C@@H](CCC(=O)O)C(=O)N[C@@H](CCCNC(=N)N)C(=O)N[C@@H](CCC(N)=O)C(=O)N[C@@H](CCCCN)C(=O)NC(C)(C)C(=O)N[C@@H](CCC(N)=O)C(=O)N[C@@H](CCCNC(=N)N)C(=O)N[C@@H](CCC(=O)O)C(=O)N[C@@H](CCC(N)=O)C(=O)N[C@@H](C)C(=O)N[C@@H](CCC(=O)O)C(=O)N[C@@H](CCCCN)C(=O)N[C@@H](CC(N)=O)C(=O)N[C@@H](CCC(=O)O)C(=O)N[C@@H](CCC(N)=O)C(=O)N[C@H](C(=O)N[C@@H](CC(C)C)C(=O)N[C@@H](CCC(=O)O)C(=O)N[C@@H](CCC(N)=O)C(=O)N[C@H](C(N)=O)C(C)C)[C@@H](C)CC)[C@@H](C)CC)[C@@H](C)CC)C(C)C)C(C)C

target: human corticotropin-releasing factor 2α (CRF2 α receptor) (human), Q13324; assay: cell-based or functional assay
Sequence (Q13324 20-411): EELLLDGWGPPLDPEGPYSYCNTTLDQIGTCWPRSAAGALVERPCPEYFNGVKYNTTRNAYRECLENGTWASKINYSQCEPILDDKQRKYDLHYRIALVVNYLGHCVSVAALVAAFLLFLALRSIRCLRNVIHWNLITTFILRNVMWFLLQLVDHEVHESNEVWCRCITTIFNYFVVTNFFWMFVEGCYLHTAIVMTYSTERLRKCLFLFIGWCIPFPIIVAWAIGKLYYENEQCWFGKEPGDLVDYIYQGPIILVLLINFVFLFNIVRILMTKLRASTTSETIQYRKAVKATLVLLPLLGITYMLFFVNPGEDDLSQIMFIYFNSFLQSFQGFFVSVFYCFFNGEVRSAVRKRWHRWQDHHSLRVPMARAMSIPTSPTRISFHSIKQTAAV

Binder | EC50 [nM], 0% HSA [nM] | EC50 [nM], 0.1% HSA [nM]
B1 | 2 | 30.5
Ac-IVLSLD[dV]PIHLK([AEEA-AEEA-γGlu-C18 diacid])QILLEQERQK[Aib]QREQAEKNKQILEQV-NH2 [SEQ ID NO: 163] | 0.24 | 3.91
B2 | 0.69 | 10.1
B3 | 0.28 | 5.06
B4 | 0.01 | –
B5 | 0.9 | 14
B6 | 3.95 | 74.4
